Measured values as given in patent US20210079080A1 (Hoffmann-La Roche, published 2021).

T1: VEGF-121-His (inhouse production) (human, UniProt P15692 207-395)
T1 construct: His-tagged human VEGF-A121 used in the ELISAs and (captured by an anti-His antibody) in SPR; also called hVEGF-A121; his VEGF; not shown: His tag
T1 sequence: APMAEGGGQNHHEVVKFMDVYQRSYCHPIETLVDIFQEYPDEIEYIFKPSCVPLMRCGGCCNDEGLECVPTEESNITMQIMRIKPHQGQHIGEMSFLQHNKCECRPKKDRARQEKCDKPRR

T2: human VEGF-A121 (human, UniProt P15692 207-395)
T2 sequence: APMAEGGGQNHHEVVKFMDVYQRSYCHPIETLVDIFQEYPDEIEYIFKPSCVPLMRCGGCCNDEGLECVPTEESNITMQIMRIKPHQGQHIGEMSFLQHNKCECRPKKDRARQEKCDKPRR


Legend:
[1] = target: T1, VEGF-121-His (inhouse production); assay: inhibition ELISA: antibody titrated against 0.4 nM VEGF-121-His; blocked partner plate-bound biotinylated VEGF-R2; anti-His POD readout
[2] = target: T1, VEGF-121-His (inhouse production); assay: SPR (Biacore), hVEGF-A121 captured by anti-His antibody, Fab injected, 37° C
Method: (§1) The surface was regenerated by injecting 10 mM Glycine pH 1.5 for 60s. […] Rate constants were calculated using the Langmuir 1:1 binding model within the Biacore® Evaluation software.
(§2) The affinity of the antibodies was determined by SPR using the same methods as described in Example 2. All Fab fragments of antibodies of the invention as listed in table 1 and table 5 were tested.

[3] = target: T1, VEGF-121-His (inhouse production); assay: inhibition ELISA: antibody titrated against 0.7 nM VEGF-121-His; blocked partner plate-bound biotinylated VEGF-R2; anti-His POD readout
Method: (§3) Plates were incubated for 1 h at room temperature. […] Plates were incubated for 1 h at room temperature. […] After washing 3 times with 90 μl/well PB ST-buffer, 25 μl/well detection antibody (anti His POD, Bethyl, #A190-114P, 1:12000) in 1×OSEP was added. After incubation for 1 h at room temperature plates were washed 3 times with 90 μl PBST-buffer. 25 μl TMB (Roche, #11 835 033 001) was added to all wells simultaneously. After 10 min incubation at room temperature, signals were detected at 370 nm/492 nm on a Tecan Safire 2 Reader.

[4] = target: T1, VEGF-121-His (inhouse production); assay: Biacore, Fab stressed 2 w/40° C./pH 6.0
Method: (§4) Antibody samples were formulated in 20 mM His/HisCl, 140 mM NaCl, pH 6.0, and were split into three aliquots: one aliquot was re-buffered into PBS, respectively, and two aliquots were kept in the original formulation. The PBS aliquot and one His/HisCl aliquot were incubated for 2 weeks (2 w) at 40° C. (His/NaCl) or 37° C. (PBS) in 1 mg/ml, the PBS sample was incubated further for total 4 weeks (4 w). The third control aliquot sample was stored at −80° C.

[5] = target: T1, VEGF-121-His (inhouse production); assay: Biacore, Fab stressed 2 w/37° C./pH 7.4
Method: as §4

[6] = target: T1, VEGF-121-His (inhouse production); assay: SPR (Biacore), hVEGF-A121 captured by anti-His antibody, Fab injected, 25° C
Method: as §1
(§5) The affinity of the antibodies was determined by SPR using the same methods as described in Example 2. All Fab fragments as listed in table 1 and table 2 were tested.

[7] = target: T1, VEGF-121-His (inhouse production); assay: inhibition ELISA: antibody titrated against 0.7 nM VEGF-121-His; blocked partner plate-bound biotinylated VEGF-R2; anti-His POD readout; remark: listed apart in the source
Method: as §3

human VEGF-A121 = target: T2, human VEGF-A121; assay: cell-based or functional assay
[8] = target: T1, VEGF-121-His (inhouse production); assay: SPR (Biacore), hVEGF-A121 captured by anti-His antibody, Fab injected, 37° C; remark: listed apart in the source
Method: as §1, §5

[9] = target: T1, VEGF-121-His (inhouse production); assay: direct ELISA on plate-coated VEGF-121-His
Method: After washing 3 times with 90 μl/well PBST-buffer (bidest water, 10×PBS Roche #11666789001+0.1% Tween® 20) blocking buffer (bidest water, 10×PBS Roche #11666789001+2% Bovine Serum Albumin Fraction V, fatty acid free, Roche, #10735078001+0.05% Tween® 20) was added 90 μl/well and incubated for 1 h at room temperature. […] After incubation for 1 h at room temperature, plates were again washed 3 times with 90 μl/well PBST-buffer. […] After washing 3 times with 90 μl A PBST-buffer, 25 μl TMB (Roche, #11 835 033 001) was added to each well. After 3 min incubation at RT, signals were detected at 370 nm/492 nm on a Tecan Safire 2 Reader.

[10] = target: T1, VEGF-121-His (inhouse production); assay: Biacore, Fab stressed 4 w/37° C./pH 7.4
Method: as §4

[11] = target: T1, VEGF-121-His (inhouse production); assay: SPR (Biacore), hVEGF-A121 captured by anti-His antibody, Fab injected, 25° C; remark: listed apart in the source
Method: as §1, §2

[12] = target: T1, VEGF-121-His (inhouse production); assay: inhibition ELISA: antibody titrated against 0.7 nM VEGF-121-His; blocked partner plate-bound biotinylated VEGF-R1; anti-His POD readout
[13] = target: T1, VEGF-121-His (inhouse production); assay: inhibition ELISA: antibody titrated against 0.7 nM VEGF-121-His; blocked partner plate-bound biotinylated VEGF-R2; anti-His POD readout; remark: listed apart in the source

IC50 (read off the curve) [1]	Kd [2]	IC50 (read off the curve) [3]	VEGF-binding activity after stress (relative active concentration, normalized to unstressed aliquot) [4]	VEGF-binding activity after stress (relative active concentration, normalized to unstressed aliquot) [5]	Kd [6]	IC50 (read off the curve) [7]	IC50 in reporter gene assay (HEK293-NFAT-RE-Luc2P/KDR cells, luminescence, 25 ng/ml VEGF-A121) (human VEGF-A121)	Kd [8]	EC50 (read off the curve) [9]	VEGF-binding activity after stress (relative active concentration, normalized to unstressed aliquot) [10]	Kd [11]	IC50 (read off the curve) [12]	IC50 (read off the curve) [13]	Binder
~200 pM	110 pM	~10 ng/mL	101	102	134 pM	1000 to 2000 pM	590 pM	99 pM	~200 pM	101	143 pM			VEGF-0089 Fab fragment (Fab, V domains shown, also called antibody VEGF-0089) VH: EVQLVESGGGLVQPGGSLRLSCAASGFTFTNYAMTWVRQAPGKGLEWVSSIGNGGGIYTYYADSVKGRFTISRDNSKNTLYLQMNSLRAEDTAVYYCAKGDNLFDSWGPGTLVTVSS VL: DIQMTQSPASLSASVGDRVTITCRASQSIYSSLNWYQQKPGKAPKLLIYASTLQSGVPSRFSGSASGTDFTLTISSLQPEDVATYYCQQYQNFPRTFGQGTKLEIKR
	109 pM										52 pM	~900 pM	~700 pM	HF2-5 Fab fragment (Fab, V domains shown, Prior art antibody disclosed in EP3006465) VH: EVQLVESGGGLVQPGGSLRLSCAASGFMIRSHGMQWVRQAPGKGLEYVAGISSDGSWARHSAAVEGRFTISRDDSKNTAYLQMNSLRAEDTAVYYCARDFSTGYGADSIDAWGQGTLVTVSS VL: DIQMTQSPSSLSASVGDRVTITCSGGSDSAYGYGWYQQKPGKAPKTLIYWDDKRPSGVPSRFSGSRSGTDFTLTISSLQPEDFATYYCGAWEYSGGVGIFGQGTKVEIKR
